{"source": "paper PMC10144703", "about": "“Molecular Mechanism of Sirtuin 1 Inhibition by Human Immunodeficiency Virus 1 Tat Protein” (Life, 2023)", "molecules": {"B1": {"name": "Tat-Cys^−: Recombinant 86-residue HIV1 Zaire 2 Tat with C22S, C25A, C27A, C30S, C31A, C34S, and C37A (protein)", "chain": "MDPVDPNIEPWNHPGSQPKTASNRAHAKKSAYHSQVAFITKGLGISYGRKKRRQRRRPSQGGQTHQDPIPKQPSSQPRGDPTGPKE"}}, "key": {"[1]": {"test_system": "mini-Sirt1-∆ESA (aa 183–505)", "experiment": "Inhibition of mini-Sirt1-∆ESA (ac-p53 substrate)", "format": "biochemical, human", "conditions": "dose-dependent, 100 µM ac-p53, n = 3; relative to mini-Sirt1", "from_the_text": "(§1) A human mini-Sirt1 construct (aa 183-505-(GGGS)2-641-665), as described in [27], was generated in a modified pET-19b with a TEV cleavage site. This construct and human full-length Sirt1 (fl-Sirt1) in pET-15b, Sirt1-(183-664) and Sirt1-(214-664) in pET-15b, mini-Sirt1-∆SBD (aa 214-505-(GGGS)2-641-665) and mini-Sirt1-∆ESA (aa 183–505) in a modified pET-19b with TEV cleavage site, Sirt2-(43-356) in a modified pET-19b with a His6-Sumo tag, Sirt3-(93-399) in a modified pET-32a with Trx-His6 tag and TEV cleavage site, hSirt3-(118-399) in pVFT3S (Sungkyunkwan University, Seoul, Republic of Korea) with His6-Trx tag and TEV cleavage site, Sirt5-(34-302) in pET-151/D-TOPO, and Sirt6-(1-355) in pQE80L.1 were purified as described. […]\n(§2) Continuous coupled enzymatic sirtuin activity assays were conducted as described. […] Reactions were monitored for 1 h at room temperature by absorption spectroscopy at 340 nm in a UV/vis plate reader (BioTek). The slope for the linear range (typically 5–25 min) was evaluated after background correction with measurements without NAD^+. Additional control reactions were run by either omitting enzyme or omitting peptide substrate to ensure that the signal measured reflects the NAD+-dependent deacetylation activity of the sirtuin."}, "[2]": {"biological_target": "T1, human Sirt6 (Homo sapiens, UniProt Q8N6T7)", "T1 construct": "Sirt6-(1-355) in pQE80L.1; made in house; host or cells: E. coli CodonPlus(DE3)", "T1 sequence (Q8N6T7 whole entry)": "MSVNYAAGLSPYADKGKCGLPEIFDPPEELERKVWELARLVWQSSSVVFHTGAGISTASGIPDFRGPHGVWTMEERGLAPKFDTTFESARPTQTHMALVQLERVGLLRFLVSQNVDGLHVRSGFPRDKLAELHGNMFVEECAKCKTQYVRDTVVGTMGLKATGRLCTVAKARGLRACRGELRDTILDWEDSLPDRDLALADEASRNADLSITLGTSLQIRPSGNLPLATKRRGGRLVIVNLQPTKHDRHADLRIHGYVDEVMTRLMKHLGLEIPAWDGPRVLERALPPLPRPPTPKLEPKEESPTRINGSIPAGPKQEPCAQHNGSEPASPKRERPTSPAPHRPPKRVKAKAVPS", "experiment": "Continuous coupled enzymatic assay, Sirt6", "format": "biochemical", "conditions": "65 μM Tat-Cys^−, myristoylated peptide at substrate Km, n = 3", "from_the_text": "as §1, §2"}, "[3]": {"biological_target": "T2, mini-Sirt1 (Homo sapiens, UniProt Q96EB6)", "T2 construct": "aa 183-505-(GGGS)2-641-665; made in house; host or cells: E. coli CodonPlus(DE3)", "T2 sequence (Q96EB6 with tags, fused parts or gaps limits assumed)": "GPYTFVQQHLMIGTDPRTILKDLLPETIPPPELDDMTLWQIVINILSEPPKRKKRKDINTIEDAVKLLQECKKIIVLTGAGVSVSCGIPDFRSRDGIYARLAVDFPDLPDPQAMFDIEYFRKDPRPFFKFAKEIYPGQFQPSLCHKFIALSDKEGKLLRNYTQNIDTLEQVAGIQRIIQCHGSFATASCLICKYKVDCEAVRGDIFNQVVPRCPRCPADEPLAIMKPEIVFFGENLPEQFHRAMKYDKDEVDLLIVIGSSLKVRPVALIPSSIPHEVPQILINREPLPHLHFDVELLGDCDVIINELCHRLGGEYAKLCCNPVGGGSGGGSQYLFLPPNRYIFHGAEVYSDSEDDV", "experiment": "2D-(1H, 15N)-HSQC NMR titration of Tat-Cys^− with mini-Sirt1", "format": "binding", "conditions": "58 µM Tat-Cys^−, 2-fold molar excess mini-Sirt1, pH 6.4, 298 K", "experimental": "NMR titration experiments were performed by stepwise addition of unlabeled mini-Sirt1 (stock concentration 260 µM) to 100 µM ^15N-labeled Tat-Cys^− in 150 mM sodium chloride, and 10 mM potassium phosphate (pH 6.4). Spectra for 2D-(^1H, ^15N)-HSQC NMR were recorded at 298 K on a Bruker 700 MHz spectrometer equipped with a cryogenically-cooled probe."}, "[4]": {"biological_target": "T3, Sirt3-(93-399) (Homo sapiens, UniProt Q9NTG7)", "T3 construct": "Sirt3-(93-399) in a modified pET-32a; Trx-His6 (cleaved yes); made in house; host or cells: E. coli CodonPlus(DE3)", "T3 sequence (Q9NTG7 93-399)": "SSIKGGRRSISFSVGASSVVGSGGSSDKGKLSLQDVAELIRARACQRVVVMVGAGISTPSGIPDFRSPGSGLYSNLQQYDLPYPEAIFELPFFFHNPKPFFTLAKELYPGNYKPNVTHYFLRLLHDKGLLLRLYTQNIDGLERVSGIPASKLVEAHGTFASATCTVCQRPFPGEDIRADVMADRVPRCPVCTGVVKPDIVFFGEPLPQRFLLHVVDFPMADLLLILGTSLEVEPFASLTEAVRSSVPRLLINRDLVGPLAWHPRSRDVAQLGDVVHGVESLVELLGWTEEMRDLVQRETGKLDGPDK", "experiment": "FdL assay, Sirt3", "format": "biochemical", "conditions": "increasing Tat-Cys^−, n = 3-6", "from_the_text": "(§3) A human mini-Sirt1 construct (aa 183-505-(GGGS)2-641-665), as described in [27], was generated in a modified pET-19b with a TEV cleavage site. This construct and human full-length Sirt1 (fl-Sirt1) in pET-15b, Sirt1-(183-664) and Sirt1-(214-664) in pET-15b, mini-Sirt1-∆SBD (aa 214-505-(GGGS)2-641-665) and mini-Sirt1-∆ESA (aa 183–505) in a modified pET-19b with TEV cleavage site, Sirt2-(43-356) in a modified pET-19b with a His6-Sumo tag, Sirt3-(93-399) in a modified pET-32a with Trx-His6 tag and TEV cleavage site, hSirt3-(118-399) in pVFT3S (Sungkyunkwan University, Seoul, Republic of Korea) with His6-Trx tag and TEV cleavage site, Sirt5-(34-302) in pET-151/D-TOPO, and Sirt6-(1-355) in pQE80L.1 were purified as described. Shortly, proteins were expressed at 20 °C (mini-Sirt1 constructs at 16 °C) in E. coli CodonPlus(DE3), cell lysates were cleared by centrifugation, and proteins were purified via affinity chromatography using a nickel NTA column. After digestion with thrombin or TEV protease, proteins were re-run over the nickel NTA column, pooled, and concentrated. The samples were, then, subjected either directly to size exclusion chromatography in 50 mM Tris/HCl, pH 8.0, 150 mM NaCl, 1 mM TCEP, or to an ion exchange chromatography followed by size exclusion chromatography. […]"}, "[5]": {"test_system": "mini-Sirt1-∆SBD (aa 214-505-(GGGS)2-641-665)", "experiment": "Inhibition of mini-Sirt1-∆SBD (ac-p53 substrate)", "format": "biochemical, human", "conditions": "dose-dependent, 100 µM ac-p53, n = 3; relative to mini-Sirt1", "from_the_text": "as §1, §2"}, "[6]": {"biological_target": "T4, human Sirt3 (Homo sapiens, UniProt Q9NTG7)", "T4 construct": "Sirt3-(93-399) in a modified pET-32a; Trx-His6 (cleaved yes); made in house; host or cells: E. coli CodonPlus(DE3)", "T4 sequence (Q9NTG7 93-399)": "T3 sequence (Q9NTG7 93-399)", "experiment": "Continuous coupled enzymatic assay, Sirt3", "format": "biochemical", "conditions": "65 μM Tat-Cys^−, acetylated peptide at substrate Km, n = 3", "from_the_text": "as §1, §2"}, "[7]": {"biological_target": "T5, human mini-Sirt1 (aa 183-505-(GGGS)2-641-665) (Homo sapiens, UniProt Q96EB6)", "T5 construct": "aa 183-505-(GGGS)2-641-665; made in house; host or cells: E. coli CodonPlus(DE3)", "T5 sequence (Q96EB6 with tags, fused parts or gaps limits assumed)": "T2 sequence (Q96EB6 with tags, fused parts or gaps limits assumed)", "experiment": "FdL assay, mini-Sirt1", "format": "biochemical", "conditions": "Michaelis–Menten", "from_the_text": "as §3"}}}
{"molecule": "B1", "values": [{"measurement": "inhibitory effects, mini-Sirt1-∆ESA", "setting": "[1]", "result": "unchanged inhibitory effects"}, {"measurement": "inhibitory effect on Sirt6, continuous assay", "setting": "[2]", "result": "no statistically significant effect was observed"}, {"measurement": "HSQC signal changes on mini-Sirt1 addition", "setting": "[3]", "result": "a large number of HSQC signals to disappear"}, {"measurement": "HSQC signals unchanged on mini-Sirt1 addition", "setting": "[3]", "result": "mostly to Tat residues 63–87"}, {"measurement": "inhibition mode vs acetylated substrate peptide, Sirt3", "setting": "[4]; FdL-1, Sirt3-(93-399)", "result": "competitive with the acetylated substrate peptide"}, {"measurement": "inhibition mode vs NAD^+, Sirt3", "setting": "[4]; NAD^+ titration, Sirt3-(93-399)", "result": "non-competitive with NAD^+"}, {"measurement": "inhibitory effects, mini-Sirt1-∆SBD", "setting": "[5]", "result": "unchanged inhibitory effects"}, {"measurement": "inhibitory effect on Sirt3, continuous assay", "setting": "[6]", "result": "pronounced inhibitory effects"}, {"measurement": "inhibition mode vs acetylated substrate peptide, Sirt1", "setting": "[7]; FdL-1, mini-Sirt1, increasing Tat-Cys^−, n = 3", "result": "competitive with the acetylated substrate peptide"}, {"measurement": "inhibition mode vs NAD^+, Sirt1", "setting": "[7]; NAD^+, mini-Sirt1, increasing Tat-Cys^−, n = 3–6", "result": "non-competitive with NAD^+"}]}
